In paper PMC10786891, “Massively parallel profiling of RNA-targeting CRISPR-Cas13d”:

T1: EsCas13d, nuclease-dead (Eubacterium siraeum, UniProt B0MS50, R295A;H300A;R849A;H854A)
T1 sequence: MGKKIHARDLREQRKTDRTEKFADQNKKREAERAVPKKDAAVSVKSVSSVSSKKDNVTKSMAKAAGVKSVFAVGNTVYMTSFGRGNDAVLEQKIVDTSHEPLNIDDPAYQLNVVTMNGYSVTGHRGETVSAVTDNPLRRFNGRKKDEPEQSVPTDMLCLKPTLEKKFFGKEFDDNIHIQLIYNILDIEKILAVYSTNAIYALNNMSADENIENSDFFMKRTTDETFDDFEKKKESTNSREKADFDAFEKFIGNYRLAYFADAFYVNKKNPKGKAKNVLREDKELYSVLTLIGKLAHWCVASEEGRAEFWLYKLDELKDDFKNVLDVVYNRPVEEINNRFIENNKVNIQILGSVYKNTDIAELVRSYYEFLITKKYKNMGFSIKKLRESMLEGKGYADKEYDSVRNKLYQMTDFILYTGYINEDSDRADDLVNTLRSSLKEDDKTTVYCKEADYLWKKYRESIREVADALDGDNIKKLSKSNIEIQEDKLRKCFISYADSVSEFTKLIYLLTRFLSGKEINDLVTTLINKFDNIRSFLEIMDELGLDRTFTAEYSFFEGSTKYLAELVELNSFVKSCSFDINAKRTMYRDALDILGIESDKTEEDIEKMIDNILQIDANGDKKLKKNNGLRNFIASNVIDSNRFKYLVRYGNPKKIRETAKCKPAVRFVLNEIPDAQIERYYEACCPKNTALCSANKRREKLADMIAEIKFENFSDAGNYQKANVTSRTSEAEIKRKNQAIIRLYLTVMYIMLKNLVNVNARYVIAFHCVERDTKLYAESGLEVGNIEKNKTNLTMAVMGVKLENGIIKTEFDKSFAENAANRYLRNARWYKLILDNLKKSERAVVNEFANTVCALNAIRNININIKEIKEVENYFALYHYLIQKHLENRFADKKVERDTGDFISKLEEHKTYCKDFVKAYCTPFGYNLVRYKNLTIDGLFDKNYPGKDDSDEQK

B1: crRNA-2 (D950N) target (mixed)
RNA 1: CACCCGUGCAAAAUUGCAGGGGUCUAAAACCUUGAAGUUUUCCAAGUGCACU
RNA 2: UCCACAGCAAGUGCACUUGGAAAACUUCAAAAUGUGGUCA
B2: crRNA-1 (D950N) target (mixed)
RNA 1: CACCCGUGCAAAAUUGCAGGGGUCUAAAACUUUUGGUUGACCACAUCUUGAA
RNA 2: UUGGAAAACUUCAAAAUGUGGUCAACCAAAAUGCACAAGC

Biological target: T1, EsCas13d, nuclease-dead
Assay: BLI; crRNA (strand 1, pre-loaded); Mg2+; 40 mM Tris-HCl pH 7.5, 150 mM NaCl, 6 mM MgCl2, 1 mM DTT, 0.1% Tween-20, 0.2 mg/ml BSA; temperature not stated
Settings: tags: His6-TwinStrep-SUMO cleaved; label: 3' biotin on strand 2

Row | Binder | Kd
1 | B1 | 2.9 nM
2 | B2 | 15 nM
